Reference: the supplement of paper PMC9170038

These sequences were tested on K4 kissing-loop RNA reporter (assay: apparent KD of K4 kissing-loop reporter; higher = weaker reporter binding). Conditions: Eterna round: R107; input ligand: FMN 200 uM.
Description: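 RNA-MaP round R107: designed RNA switches with theophylline, tryptophan, arginine or FMN aptamers are transcribed on-chip within common flanks. They are titrated with a labelled K4 kissing-loop RNA reporter in RNA-MaP buffer (100 mM Tris pH 7.5, 80 mM KCl, 4 mM MgCl2), without ligand or with the indicated ligand. Median apparent KD per design.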
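Note: bound reporter read as fluorescence of individual clusters on recovered sequencing chips by microscopy, with normalized cluster intensities fitted with a binding model.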

“AAGCAUUCUUCGGAAUGCAGACCCGCUGAGGAGGAUAUGACGAAAGUCAGAAGGUCUCAGUGAUGUUGAGGCCUCCUCAAUGGUC [whbob_Ex_FMNA__2th181]” and “CGUGAGUGAUGUUCACGAUGCUUCAAUCUAGAGGAUAUUCACGAUCGAAGAAGGCUGGACAAGUGCUGUCUCAUGACAGAUAAGG [FMN A SS t4]” are within 1.5-fold of each other in “apparent KD of K4 kissing-loop reporter” value: 212 nM for the first, 161 nM for the second.

“UGUGUUUACCUGACUCAGUGAUGUUGAGAAGGAGCGUGCGAAUGCACAGGUAGGUCGCUCAACCUAAAUUCAGGUGAGCACUAAA” and “UGUGCCAACAGCGAUACCAGCCCGGCAGUGAUGUUGCCGGACGGAGUGAUGUUCCGGCAGGGCCCUUGGCAGCGCAGAAGCGCGA [Exclusion Theophylline B Gf 28]” are within 1.5-fold of each other in “apparent KD of K4 kissing-loop reporter” value: 303 nM for the first, 215 nM for the second.

Going from “UUCCAGUGAUGUUGGUAUCUGAUAAGGGAAGGAGCGCGGAUUAACGCAGGUAGGUCGCCCAAGUAAUAAAUGUUUAUUAAUUGAU [Default title]” to “UCUGCUGUAUAUGAUACCAGCAGUGAGAGACGAGAAGUAUAGUGAUGUUAUAUGAGAGAAUGCCCUUGGCAGCGUGUGCGUGUGG [SSTheophylB.aA]”, the “apparent KD of K4 kissing-loop reporter” value falls from 183 nM to 96.3 nM (1.9-fold).

Compared with “ACAAGGGAUCCAGAUACCAGCACUCAAGGAGCUAUAUCAGCGAGUGAUGUUCGUUCAUAGUGCCCUUGGCAGCUGUACUUCCUUG [Essoengeis]”, “AAACAUCACUGGGAGUGAUGUUCUCAGUGACGAGGACCGGUACGGCCGCCACUCGCGAGAGAUAUAAUUAAGUAAUGACUUCAUU [Excl Tryptophan A V7]” is 2.1-fold higher in “apparent KD of K4 kissing-loop reporter” value: 115 nM for the first, 241 nM for the second.

Compared with “UCUUUUGUAUAUGAUACCAGCAGUGAGAGACAGGAAGUAUAGUGAUGUUAUAUGAGAGAAUGCCCUUGGCAGCGUGUGCGGUUGG [SSTheophylB.V]”, “UUAGUCUAGAGAAGGAGCGAGUGAUGUUCGCAUGAUCUCAUGAUAUCAUGAGAUCGAAAUCCUCAGGUAGGUCGCUCUAGACAUU [AK6 Exc Arginine B]” is 5.2-fold higher in “apparent KD of K4 kissing-loop reporter” value: 95 nM for the first, 493 nM for the second.

“AGUGAUGUUUUUUUUAAGAGUGAUGUUUUUCGAGGACCGGUACGGCCGCCACUCGAGUGAGGAGUGCGGUGGUGAGAUGUUGAGU [oomullin]” and “GUACGCUUCCGAGUGAUGUUCGGUAAUAGUUAGGAUAUCGCUUUUGCGAGAAGGAACUGAAUGAGGAAACUCGUUCGAAGUGUAC [FMN A 17]” are within 1.5-fold of each other in “apparent KD of K4 kissing-loop reporter” value: 549 nM for the first, 406 nM for the second.

Going from “CCUAUCUCAUACGAUACCAGUGAAUAACCAGUGAUGUUGGAAUAACCAAGGAAUAUUUUUCACCCUUGGCAGCGUAUGGGAUAGG [Ex Theophylline B K4 27]” to “AAGGGCGGGACUUUCUCGCCGGAUAGAGAUACCAGCCCAGCAAAGGGCCCUUGGCAGCUCACUGACCUCAGUGAUGUUGAGGUUC [Soerrainat]”, the “apparent KD of K4 kissing-loop reporter” value falls from 492 nM to 295 nM (1.7-fold).

Going from “AGACUAUCGUCAAAGACGGUAGUCAAAAGUGAGGAUAUAAGUGAUGUUAGAAGGCACUAAGACUGUAUCGAAUAGAUACGGUCAA [FmnA 2 #K4BetweenAptamer #OpenEnded]” to “CUUGAAAUGACUGAUACCAGUGAAAAUAUAUGUAGUGAUGUUAUAUACUAAUUUAAUAAGCGCCCUUGGCAGCAGUAUGAAUUAU [AstrosExc-theB#17]”, the “apparent KD of K4 kissing-loop reporter” value falls from 1450 nM to 861 nM (1.7-fold).

“AAAAUAACCCAGUGAUGUUGGUAACCAGAUACCAGCGACGAAAGUCGCCCUUGGCAGCUGUGGACGUACAAAAUAAGUACGUCCU” and “AAUAUAGUGAUGUUAUAUAAGAAGGAGUUACGAGGACCGGUACGGCCGCCACUCGAAACGAGUGAUGAUUUGGGAGAUUGGGUUG [SSTryptA.N]” are within 1.5-fold of each other in “apparent KD of K4 kissing-loop reporter” value: 686 nM for the first, 484 nM for the second.

Compared with “AAUAUACAGGGAAGGAGCGUCGUCCAGUGAUGUUGGAGUUAAAUACCAGUGAUGUUGGUUAGGCAGGUAGGUCGCCCUAAAGUAU [KL-XARG-B15]”, “CUUUGGAGUGAUGUUCCAGGUUGUACGGAUACCAGCCAAGCCAGAGGCCCUUGGCAGCCGAGUAUUGCAGUGAUGUUGCGAUGGG [Same State Theophylline A GF 2]” is 3.2-fold higher in “apparent KD of K4 kissing-loop reporter” value: 93.6 nM for the first, 304 nM for the second.

“ACCUUAUUUGCCAGUGAUGUUGGACAGGAAGGAGCGGGCAUAAGCCCAGGUAGGUCGCCUGUCAACUUUCUUAUAGCCCAAAGGU [KL-XArg-A18]” and “UGUACCGAGUCAGGAUAUGGCGUCGAAAGACGAAUCUUAGUGAUGUUAGGGAUCUGCGAAAGCAGUCUAGAAGGGACUUGGUACU [FmnBS 26 U37+U68]” are within 1.5-fold of each other in “apparent KD of K4 kissing-loop reporter” value: 308 nM for the first, 396 nM for the second.

Going from “UGUGCUGUGUAGUGUAAUGUUUUGCGGGAUACCAGAGUCUUUUUAUUCCCUUGGCAGCUUGAGUGAUGUUUGAUGCUGUUCUUGU [bbtbmullin]” to “GGAUAGGACAGAGGAUAUGGAGAGUCUACAAAGUAGGCUCAUAAUCCUUGAAUGGAAGUGAUGUUUCUAGAAGGCUGUCCUAUCG [FmnBX 18 - #SwitchBubble #StaticStem #Palindromic]”, the “apparent KD of K4 kissing-loop reporter” value rises from 376 nM to 758 nM (2-fold).

Going from “UUUAAAUAUAGUGAUGUUAUAUAACAAUGACGAGGACCGGUACGGCCGCCACUCGAGAGAGAUAAUGGUAAAAUAAAUAAUUUUC [AstrosSSTryA#3]” to “UGAUACCAGACGGCCGCCACUCCUGCAAGUCAAAGACUUGCUAAAGGAAUCGUCCAGUGAUGUUGGAGGACCGGGUCUGGUAUCU [TrypBX 18 #SwitchBubble #Palindromic #StaticStem]”, the “apparent KD of K4 kissing-loop reporter” value rises from 395 nM to 1040 nM (2.6-fold).

Compared with “GCCGUACGCAUGGAUACCAGAUGGCACUAUAAUCUCCCAGAGUGAUGUUCUGGCCUGCCUAUCCCUUGGCAGCCAUGCGUACGGC”, “CCAUCGCUAUUCGAUACCAGCUACUUAGUGAUGUUAAGUUAAAAUUAAUUGUAGAUUAAAAGCCCUUGGCAGCGAAUAGUGAUGG [Theophylline B K4 20]” is 4.3-fold lower in “apparent KD of K4 kissing-loop reporter” value: 686 nM for the first, 159 nM for the second.

Going from “UGUCAUUGGUCGGCCGCCACUUCAUAAAGAGUGAUGUUCUGAAAGACGGAUCGAAAGAUCUGUCGGAGGACCGGGACCGAUGACU [FiskerMod 2 - Jieux - Same State - Tryptophan B]” to “AGCCUGAUAUAAGGAUAUCCGGACCGAGUAACUGAGUGAUGUUCAGGUGAAUAAUGUCUCACAUUGGGAGAAGGUAUUUCAGCGA [theeternabot_sameState_KL_FMN_B_21]”, the “apparent KD of K4 kissing-loop reporter” value falls from 1450 nM to 232 nM (6.2-fold).

Going from “AAGGUUGUGCAUGGGAGUGAUGUUCCCACGCAGGAUAUCGCUCUCGCGAGAAGGGCGAGCACAACCGCUCAAGAAACUUGAGCAA [Omei KL FMN A SS C v3]” to “CCCUUGGUAUAUCGGUAUGUAUAAGCGGAUACCAGCCAGGACAACGGCCCUUGGCAGCCGGGCAGGCAGAGUGAUGUUCAUGCUA [theeternabot_exclusion_KL_Theo_A_22]”, the “apparent KD of K4 kissing-loop reporter” value rises from 129 nM to 385 nM (3-fold).

Going from “GCGUCCAUGUAUGAUACCAGACUUUUUUUAGUAGGUGACGAUAGUGAUGUUAUACGUCAAGUCCCUUGGCAGCAUGACCUAUUAU [theeternabot_exclusion_KL_Theo_B_23]” to “AACUUUUAAUGAAUUACAUUUUAUUUUUCUCGAGGACCGGUACGGCCGCCACUCGUACUAUAGUGAUGUUAUAGAUAAGUCCUAA [JR_ExcTryptoA_Sub020]”, the “apparent KD of K4 kissing-loop reporter” value falls from 423 nM to 124 nM (3.4-fold).

Going from “AAACAUUGGUGCGAUACCAGCUGAUCGGAAACGAUCUUGCUGGAGUGAUGUUCCAAGUAAAGCCCUUGGCAGCGCACCGAUGAAA [MAT - Same State Theophlline B - Mod of Eli - D21]” to “CUUGGUCUACGAAGGAGCGCCGUGCAGUGAUGUUGCAGUCAGAUCGAGUGAUGUUUCGGGCGGCAGGUAGGUCGCGUGGCCCUCU [Excusion Arginine B GF 27]”, the “apparent KD of K4 kissing-loop reporter” value rises from 135 nM to 574 nM (4.3-fold).

Compared with “AUGAGGAACAGUGAUCCUAUUCCAUGGGAAGGAGCGUAGGAUACUACAGGUAGGUCGCCCAGUGAUGUUGGGCGCGUGUUCUUGG [Soririza]”, “GCGCGCGGCGGAGGAUAUAGCCGGUGGUCCGGGAAAGUGAGUGAUGUUCGCGGAGUUCUGGAUAUGUUAGAAGGCCGCCGCGCGC [qwertyuiopasdfghjklzxcvbnm]” is 8.4-fold higher in “apparent KD of K4 kissing-loop reporter” value: 120 nM for the first, 1010 nM for the second.

“GGGAAACCCAAUCAUACGGCGGUUCUUAGUCGAGGACCGGUACGGCCGCCACUCGAACUUGCUAGUGAUGUUAGCUUAUCGAGCU” and “GCUAUGGUAGGAAGGAGCGCUUAUUUAUUAAUAAGAGUGAUGUUCGAUAAUAAAUAUUUAUAGCAGGUAGGUCGCCUACUAUAGC [Arginine B K4 1]” are within 1.5-fold of each other in “apparent KD of K4 kissing-loop reporter” value: 221 nM for the first, 225 nM for the second.

Going from “UUUUGGCCAACGGCCGCCACUCACUAGUGAUGUUAGUUUGUGUUAUUCAUGAACCCGAUGUCGUCGAGGACCGGGUUGGGUUAUA [theeternabot_exclusion_KL_Trp_B_41]” to “UUGUUUGGUUGAGAGGUUGGGCGAGAUGAUACCAGUAGAGAAGAAUACCCUUGGCAGCAUAAGAAAGAUAUAGUGAUGUUGUAUA [SSTheophA.O]”, the “apparent KD of K4 kissing-loop reporter” value rises from 242 nM to 538 nM (2.2-fold).

In the case of “CAGCGGAGUGAUGUUCUGCUUACUCCGGAUACCAGCUUCGCCAGAGGCCCUUGGCAGCCGGGCGGCUCAGUGAUGUUGGGUUGCU [Same State Theophylline A GF 16]”, the “apparent KD of K4 kissing-loop reporter” value was 934 nM.

Same assay, conditions: Eterna round: R107; input ligand: arginine 13.2 mM

Compared with “AAGCAUUCUUCGGAAUGCAGACCCGCUGAGGAGGAUAUGACGAAAGUCAGAAGGUCUCAGUGAUGUUGAGGCCUCCUCAAUGGUC [whbob_Ex_FMNA__2th181]”, “CGUGAGUGAUGUUCACGAUGCUUCAAUCUAGAGGAUAUUCACGAUCGAAGAAGGCUGGACAAGUGCUGUCUCAUGACAGAUAAGG [FMN A SS t4]” is 1.6-fold higher in “apparent KD of K4 kissing-loop reporter” value: 160 nM for the first, 253 nM for the second.

First: UGUGUUUACCUGACUCAGUGAUGUUGAGAAGGAGCGUGCGAAUGCACAGGUAGGUCGCUCAACCUAAAUUCAGGUGAGCACUAAA
Second: UGUGCCAACAGCGAUACCAGCCCGGCAGUGAUGUUGCCGGACGGAGUGAUGUUCCGGCAGGGCCCUUGGCAGCGCAGAAGCGCGA [Exclusion Theophylline B Gf 28]
The “apparent KD of K4 kissing-loop reporter” value of the first is 2.9-fold lower: 76.4 nM for the first, 222 nM for the second.

Compared with “UUCCAGUGAUGUUGGUAUCUGAUAAGGGAAGGAGCGCGGAUUAACGCAGGUAGGUCGCCCAAGUAAUAAAUGUUUAUUAAUUGAU [Default title]”, “UCUGCUGUAUAUGAUACCAGCAGUGAGAGACGAGAAGUAUAGUGAUGUUAUAUGAGAGAAUGCCCUUGGCAGCGUGUGCGUGUGG [SSTheophylB.aA]” is 2-fold lower in “apparent KD of K4 kissing-loop reporter” value: 193 nM for the first, 94.3 nM for the second.

Compared with “ACAAGGGAUCCAGAUACCAGCACUCAAGGAGCUAUAUCAGCGAGUGAUGUUCGUUCAUAGUGCCCUUGGCAGCUGUACUUCCUUG [Essoengeis]”, “AAACAUCACUGGGAGUGAUGUUCUCAGUGACGAGGACCGGUACGGCCGCCACUCGCGAGAGAUAUAAUUAAGUAAUGACUUCAUU [Excl Tryptophan A V7]” is 1.9-fold higher in “apparent KD of K4 kissing-loop reporter” value: 107 nM for the first, 205 nM for the second.

Going from “UCUUUUGUAUAUGAUACCAGCAGUGAGAGACAGGAAGUAUAGUGAUGUUAUAUGAGAGAAUGCCCUUGGCAGCGUGUGCGGUUGG [SSTheophylB.V]” to “UUAGUCUAGAGAAGGAGCGAGUGAUGUUCGCAUGAUCUCAUGAUAUCAUGAGAUCGAAAUCCUCAGGUAGGUCGCUCUAGACAUU [AK6 Exc Arginine B]”, the “apparent KD of K4 kissing-loop reporter” value rises from 174 nM to 372 nM (2.1-fold).
